This is an account of results in patent publication US6025179.

This series concerns SnaBI restriction endonuclease (R.SnaBI) (Sphaerotilus natans). The series is described as follows: cleavage_in_vitro. To be noted: crude extract, 37 C, 15 min and 1 h; about 8x10^6.

T7 phage DNA (SnaBI substrate) displayed an activity (units/g wet cells) of 8e+06.
